The values that follow come from US20250376535A1 (BEIJING STARMAB BIOMED TECHNOLOGY, published 2025).

Sequences and labels used below:
T1: recombinant human IL-22 (human, UniProt Q9GZX6 34-179)
T1 construct: also called rh-IL22
T1 sequence: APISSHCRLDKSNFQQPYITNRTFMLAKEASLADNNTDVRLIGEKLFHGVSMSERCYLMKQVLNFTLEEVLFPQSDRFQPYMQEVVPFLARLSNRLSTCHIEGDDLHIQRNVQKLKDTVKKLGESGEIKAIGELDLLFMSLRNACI

B1: pgEG-SX56 (VHH, not shown: small tags and cut ends)
VHH: QVQLVESGGGFVQAGGSLRLSCAASGRFLSIADMDWYRRVPGKQRELVASITRAGDTALEDSVKGRFTISRDNAKNTVHLQMNSVKPEDTAVYYCRADVTRSGTPYFEVWGQGTLVTVSS
B2: pgEG-SX55 (VHH, not shown: small tags and cut ends)
VHH: QVQLVESGGGLVQPGGSLRLSCAGTGLIFTTYVMGWYRQAPGKQRELVAIVTNGGGTHYADFVKGRFTISRDNAKNTVSLQMNLLKPEDTAVYYCNARHLVRPGTNDYWGQGTLVTVSS
B3: pgEG-SX39 (VHH, not shown: small tags and cut ends)
VHH: QVQVAESGGGLVQAGESLRLSCTASGSISTINAVRWYRQTPGKQREFVAYISTDGGTDYADPVKGRFTISRDNAKNTWFLQMNSLKPEDTGVYMCNVVVTPYAYWGQGTQVTVSS
B4: pgEG-SX52 (VHH, not shown: small tags and cut ends)
VHH: QVQLVESGGGLVKAGKSLRLSCAASVSSFDTYTMGWYRQAPGKQREQVAIITPGAGTHYADSVKGRFTISRDNAKNTVYLQMSSLKLEDTAVYYCKARHRITGYDYWGQGTQVTVSS
B5: pgEG-SX9 (VHH, not shown: small tags and cut ends)
VHH: QVQLVESGGGLVQAGGSLRLSCAASVSGSALSNMAWYRQRPGNQRELVAHITFDNFTNYADSVKGRFTISRDNVKNTVDLQMSSLKPEDTAVYYCNARHFFGDNYWGKGTLVTVSS
B6: pgEG-SX20 (VHH, not shown: small tags and cut ends)
VHH: QVQLVESGGGLVQAGGSLRLSCAGARSAFSIKPMTWYRQAPGKERELVAYFNSGGSTNYADSVKGRFTISRDNAKNTMYLQMNNLKPEDTAVYYCNAIPPLGSWGQGTQVTVSS
B7: pgDD40-HZ-15 (VHH, not shown: small tags and cut ends)
VHH: EVQLVESGGGLVQAGGSLRLSCAASGFTFDDYAIGWFRQAPGKEREGVSCLSKNVGNTYYADSVKGRFTISSDNAKNTVYLQMNSLKPEDTAVYYCAKGSGYGCYDFPRYAVWGQGTQVTVSS
B8: Humanized IL22-223 (VHH)
VHH: EVQLVESGGGLVQPGGSLRLSCAASGFTLNYYVMSWFRQAPGKEREGVSAISSSDGSTYYADSVKGRFTISRDNSKNTLYLQMNSLRAEDTAVYYCAADLRAYYTVPLWASEYDYWGQGTVSS
notes: not shown: C-terminal His-tag
B9: IL22-A3 (VHH)
VHH: QVQLVESGGGLVQPGGSLRLSCEASGRTFSSVSMGWFRQAPGKERVIVAAADWSGTTYYTGSLKGRFTISRDNAKNMVYLQMNSLKPEDTAVYYCAASDPRRSAYKYWGQGTQVTVSS
notes: Llama single domain antibody with C-terminal His-tag; not shown: C-terminal His-tag
B10: IL22-223 (VHH)
VHH: QVQLVESGGGLAQPGGSLRLSCAVSGFTLNYYVIAWFRQAPGKEREGVSCISSSDGSTYYTDSVKGRFTISRDNAKNTVYLQMDSLKPEDTAVYYCAADLRAYYTVPLWASEYDYWGQGTQVTVSS
notes: as for B9
B11: IL22-354 (VHH)
VHH: EVQLVESGGGLVQPGGSLRLSCAASGFTLDYYAIAWFRQAPGKEREGVSCISTSDGSTYYADSVKGRFTISRDNAKNTVYLQMNSLKPEDTAVYYCAADPSPFFVAPLVDYEYDYWGQGTQVTVSS
notes: as for B9
B12: MSA6 (VHH)
VHH: QVQLVESGGGLVQPGGSLRLSCAASGLPSRVMGWFRQAAGKEREFVASISVSGIDTRYGDSVKGRFTISRDNTKSSLYLQMNSLKPEDTAVYYCAATDGQGNYRHWGQGTQVTVSS
notes: Llama single domain antibody with C-terminal His-tag, made in HEK293; not shown: C-terminal His-tag
B13: MSA2 (VHH)
VHH: EVQLVESGGGLAQAGGFLRLSCADSGHSFSLYAMAWFRQTPEKEREFVAAISSSGGDTYYADSVKGRFTISRENAKNTVYLQMDSLKPGDTAVYFCAGNYYTSQLMRGMYEHWGQGTQVTVSS
notes: as for B12

T4 sequence (P25942 21-193 limits assumed): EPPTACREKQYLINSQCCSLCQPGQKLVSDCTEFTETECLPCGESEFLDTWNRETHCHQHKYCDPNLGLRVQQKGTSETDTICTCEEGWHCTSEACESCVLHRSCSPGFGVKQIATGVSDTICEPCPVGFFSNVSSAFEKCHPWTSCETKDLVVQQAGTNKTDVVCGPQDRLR
T3 sequence (P25942 21-193): as the sequence (P25942 21-193 limits assumed) above

One assay addresses T2, EGFR Fc (human, UniProt P00533 25-645).
T2 construct: also called EGFR-hFc; recombinant human EGFR-Fc
The assay can be described thus: ELISA, EGFR Fc coated, VHH at 0.0032 nM.
Experimental: (§1) After four rounds of washing with PBST, the plate was incubated with detecting antibody anti-his-HRP (1:4000 dilution) 100 μl per well for one hour with shaking at 60 rpm. The plate was developed with 100 μL of TMB per well in the dark and then stopped by 50 μL of stop solution per well. […] Data was analyzed using GraphPad Prisma 9.1.
B1: the OD450 is 0.409.
Same read-out and setting: the figure for B2 is 0.125.
The molecule B3 displayed an OD450 of 0.075.
Molecule B4 had an OD450 of 0.196.
Molecule B5 showed an OD450 of 0.237.
The same measure, in the same setting: then B6, with 0.358.

The next assay has as its target T2, EGFR Fc. Put plainly: ELISA, EGFR Fc coated, VHH at 0.08 nM. On the technique in general: In an ELISA, binding on a coated surface is turned into a signal by an enzyme label.
Experimental: as §1
Take B1: the OD450 came out at 1.15.
The molecule B2 displayed an OD450 of 0.5.
On the same count and under the same terms, then B3, with 0.068.
The same measure, in the same setting: then B4, with 1.07.
Still for that read-out and setting: then B5, with 1.84; and B6, with 1.95.

Another assay addresses T2, EGFR Fc. The assay can be described thus: ELISA, EGFR Fc coated, VHH at 0.4 nM.
Experimental: as §1
The molecule B1 returned an OD450 of 1.32.
On to B2, for which the OD450 was 1.61.
The same measure, in the same setting: then B3, with 0.067.
Still for that read-out and setting: the figure for B4 is 2; for B5 it is 2.4.
Same read-out and setting: the figure for B6 is 2.67.

Another assay has as its target T3, recombinant human CD40-Fc (human, UniProt P25942 21-193).
T3 construct: also called rh-CD40-Fc; CD40-hFc
Put plainly: ELISA, CD40-Fc coated, VHH at 0.013 nM.
Experimental: (§2) After four times washing with PBST, the plate was incubated with detecting antibody anti-his-HRP (1:4000 dilution) 100 μl per well for one hour with shaking at 60 rpm. The plate was developed with 100 μL of TMB per well in the dark and then stopped by 50 μL of stop solution per well.
As for B7, the OD450 was determined as 0.063.

The target in another assay is T2, EGFR Fc. Put plainly: ELISA, EGFR Fc coated.
Experimental: as §1
On to B1, for which the EC50 (in general, the concentration at which the effect is half-maximal) is 0.044 nM.
On the same count and under the same terms, then B2, with 0.237 nM; and B3, with 2760 nM; and B4, with 0.105 nM.
The same measure, in the same setting: the figure for B5 is 0.0278 nM.
For the molecule B6, it took 0.025 nM to reach a half-maximal effect (EC50).

In the next assay the target is T2, EGFR Fc. Put plainly: ELISA, EGFR Fc coated, VHH at 50 nM.
Experimental: as §1
As to B1, the OD450 was 1.47.
Still for that read-out and setting: the figure for B2 is 2.2.
Still for that read-out and setting: then B3, with 0.147; and B4, with 2.33; and B5, with 2.28.
B6 gave an OD450 of 2.67.

Another assay has as its target T3, recombinant human CD40-Fc. Put plainly: ELISA, CD40-Fc coated, VHH at 40 nM.
Experimental: as §2
Take B7: the OD450 was 0.076.

Another assay addresses T4, Human CD40 antigen (recombinant, BLI) (human, UniProt P25942 21-193).
T4 construct: also called rh-CD40
The assay can be described thus: BLI, VHH-His on anti-His tips, human CD40 in solution.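 Further: kinetics measured at 30 °C in PBS pH 7.2, association tracked for 200 s, then dissociation followed in PBS lacking CD40.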
Experimental: Bio-Layer Interferometry (BLI) kinetic binding analysis. […] Affinity measurements were performed with Gator equipped with Anti-Penta-His capture (HIS1K) biosensor tips. The assay was performed at 30° C. in 1×PBS buffer (Gibco®, PBS pH7.2). Samples were agitated at 1000 rpm. Prior to analysis, sensors were humidified for 15 min. […] Sensor data was collected throughout the experiments, processed, and analyzed using the Gator data analysis software.
Briefly, purified anti-CD40 VHH was tested for its binding capacity with HIS1K sensor tips. Tips were loaded using 20 μg/ml of anti-CD40 VHH. Loading proceeded for 300 sec resulting in capture levels of between 1.8 and 2 nm. […] Association was initiated and monitored for 200 sec, after which tips were transferred to 1×PBS buffer without CD40 protein in order to monitor dissociation.
On to B7, for which the Kd (usually the equilibrium constant for the complex coming apart) worked out at 3.12 nM; the koff (as a rule, the first-order rate constant of dissociation) stood at 0.0011 s⁻¹; the kon (in general, the rate constant with which the complex forms) was found to be 351000 M⁻¹ s⁻¹.

A further assay addresses T3, recombinant human CD40-Fc. Put plainly: ELISA, CD40-Fc coated, VHH at 200 nM.
Experimental: as §2
For B7, the OD450 amounted to 0.166.

A further assay deals with T2, EGFR Fc. Put plainly: ELISA, EGFR Fc coated, VHH at 2 nM.
Experimental: as §1
Consider B1, for which the OD450 amounted to 1.46.
Still for that read-out and setting: the figure for B2 is 2.22; for B3 it is 0.073; for B4 it is 2.34.
Same read-out and setting: the figure for B5 is 2.64; for B6 it is 2.61.

In another assay the target is T3, recombinant human CD40-Fc. Put plainly: ELISA, CD40-Fc coated, VHH at 0.32 nM.
Experimental: as §2
As for B7, the OD450 was found to be 0.06.

The target of a further assay is T1, recombinant human IL-22. The assay can be described thus: BLI (Octet), His-tagged VHH on HIS1K tips, IL-22 in solution. (In general: In BLI a coated tip is dipped into the sample, and binding shifts an interference pattern.)
Experimental: Bio-Layer Interferometry (BLI), a label-free technology was used for measuring the binding kinetics of positive llama single domain antibodies. Affinity measurements were performed with Octet QKe equipped with Anti-Penta-His capture (HIS1K) biosensor tips (ForteBio®). The assay was performed at 30 C in 1×PBS buffer (Gibco®, PBS pH7.2). Samples were agitated at 1000 rpm. Prior to analysis, sensors were humidified for 15 minutes. Purified single domain antibodies was tested for its binding capacity with HIS1K sensor tips. Tips were loaded using 20 μg/ml of single domain antibodies. Loading proceeded for 300 s resulting in capture levels of between 1.8 and 2 nm. […] Association was initiated and monitored for 200 s, after which tips were transferred to 1×PBS buffer without Factor protein (Gibco, PBS pH 7.2), in order to monitor dissociation. Sensor data was collected throughout the experiments, processed, and analyzed using the Octet data analysis software 7 (Forte Bio).
On to B8, for which the Kd came to 1.07 nM, the koff amounted to 0.000547 s⁻¹ and the kon came out at 509000 M⁻¹ s⁻¹.
In the same order, the values of B9 are 0.817 nM, 0.000405 s⁻¹ and 496000 M⁻¹ s⁻¹.
In the same order, the values of B10 are 1.29 nM, 0.00036 s⁻¹ and 278000 M⁻¹ s⁻¹.
In the same order, the values of B11 are 0.366 nM, 0.000184 s⁻¹ and 503000 M⁻¹ s⁻¹.

A further assay has as its target T2, EGFR Fc. Put plainly: ELISA, EGFR Fc coated, VHH at 10 nM.
Experimental: as §1
B1 gave an OD450 of 1.54.
Still for that read-out and setting: then B2, with 2.42; and B3, with 0.093.
Turning to B4, the OD450 came out at 2.44.
Still for that read-out and setting: the figure for B5 is 2.4; for B6 it is 2.6.

In the next assay the target is T3, recombinant human CD40-Fc. Put plainly: ELISA, CD40-Fc coated, VHH at 0.0026 nM.
Experimental: as §2
Turning to B7, the OD450 was 0.064.

For the next assay, the target named is T2, EGFR Fc. The assay can be described thus: ELISA, EGFR Fc coated, VHH at 500 nM.
Experimental: as §1
Molecule B1 showed an OD450 of 1.5.
Consider B2, for which the OD450 was 2.24.
B3 registered an OD450 of 0.503.
On the same count and under the same terms, then B4, with 2.23.
B5 came in with an OD450 of 2.2.
Still for that read-out and setting: then B6, with 2.53.

The next assay deals with T3, recombinant human CD40-Fc. The assay can be described thus: ELISA, CD40-Fc coated, VHH at 8 nM.
Experimental: as §2
Regarding B7, the OD450 worked out at 0.061.

For another assay, the target named is T3, recombinant human CD40-Fc. Put plainly: ELISA, CD40-Fc coated, VHH at 0.064 nM.
Experimental: as §2
Turning to B7, the OD450 was found to be 0.062.

Another assay has as its target T2, EGFR Fc. Put plainly: ELISA, EGFR Fc coated, VHH at 0.016 nM.
Experimental: as §1
As for B1, the OD450 came to 0.569.
The same measure, in the same setting: the figure for B2 is 0.193; for B3 it is 0.072.
Regarding B4, the OD450 amounted to 0.32.
Still for that read-out and setting: then B5, with 0.903; and B6, with 1.13.

In the next assay the target is T3, recombinant human CD40-Fc. The assay can be described thus: ELISA, CD40-Fc coated, VHH at 1000 nM.
Experimental: as §2
Turning to B7, the OD450 worked out at 0.479.

A further assay deals with T3, recombinant human CD40-Fc. The assay can be described thus: ELISA, CD40-Fc coated, VHH at 1.6 nM.
Experimental: as §2
For B7, the OD450 was 0.062.

The next assay has as its target T5, human serum albumin (human, UniProt P02768 25-609).
T5 construct: also called HSA
The assay can be described thus: BLI (Gator), His-tagged VHH on anti-His sensor, HSA 100 nM in solution.
Experimental: Kinetic binding analysis of MSA VHHs were performed with Gator Prime system equipped with analyze software. […] The experiments were done at 30° C. Prior to analysis, sensors were socked in Q buffer for 600 sec with shaking at 1000 rpm, and then 2 μM of HIS tagged MSA VHHs were loaded to Anti-His sensors with shaking at 400 rpm for 120 sec. Loaded sensors were transferred into Q buffer for 60 sec. Association of HSA or MSA at 100 nM was initiated and monitored for 120-180 sec with shaking at 1000 rpm, and finally dissociation in Q buffer for 120-180 sec with 1000 rpm shaking. Software V2.0 (Gator Bio) was used for data analysis. The on-rate (Kₒₙ) and off-rate (Kd) were determined by fitting of the association and dissociation phases of each sample. The mathematical model used assumes a 1:1 stoichiometry, fitting only one analyte in solution binding to one binding site on the surface. The equilibrium dissociation constant (KD), a measure for affinity, was then calculated as the ratio of Kd and Kₒₙ.
In turn, B12 gave a Kd of 20.9 nM, a koff of 0.00125 s⁻¹ and an association rate constant (kon) of 59800 M⁻¹ s⁻¹.
Molecule B13 had a koff of 0.0225 s⁻¹.
